In US20040167319A1 (Genmab, published 2004):
Substitutions are numbered along the chain they refer to. *1 amine or outer side, *2 acyl side, *3 side chain or, on linkers, in order; H or OH if unused. Bridges are numbered along the chain shown (N, C = ends). Where no end group is shown, it is not given here. mXylylene = c1cc(C[*:1])cc(C[*:2])c1; minicard = not defined here

B1: 11B8 (antibody, IgG3, V domains shown)
VH: EVQLVQSGGGLVHPGGSLRLSCTGSGFTFSYHAMHWVRQAPGKGLEWVSIIGTGGVTYYADSVKGRFTISRDNVKNSLYLQMNSLRAEDMAVYYCARDYYGAGSFYDGLYGMDVWGQGTTVTVSS
VL: EIVLTQSPATLSLSPGERATLSCRASQSVSSYLAWYQQKPGQAPRLLIYDASNRATGIPARFSGSGSGTDFTLTISSLEPEDFAVYYCQQRSDWPLTFGGGTKVEIK
notes: Human monoclonal IgG3,κ from hybridoma
B2: 7D8 (antibody, IgG1, V domains shown)
VH: EVQLVESGGGLVQPDRSLRLSCAASGFTFHDYAMHWVRQAPGKGLEWVSTISWNSGTIGYADSVKGRFTISRDNAKNSLYLQMNSLRAEDTALYYCAKDIQYGNYYYGMDVWGQGTTVTVSS
VL: B1 VL with D93N, L96I, G100Q, K103R, V104L
notes: Human monoclonal IgG1,κ from hybridoma
B3: 2F2 (antibody, V domains shown)
VH: B2 VH with D15G, H30N, T57S, N77K
VL: B1 VL with D93N, L96I, G100Q, K103R, V104L
modifications: FITC- or 125I-labelled in some assays; F(ab')2 fragments in some; the letters do not carry this
notes: Human monoclonal IgG1,κ from hybridoma; also called 4C9; HuMab 2F2 (hybridoma-derived)

Biological target: T1, YCNIYNAEPANPSCK (linker 2-14 via mXylylene; reading uncertain)
T1 construct: 15-mer looped Pepscan peptide derived from human CD20, Cys put in at two positions
T1 peptide: Ac-YCNIYNAEPANPSCK-minicard
Assay: Pepscan ELISA, 10 µg/ml
Source text: (§1) In some cases chemical linkage of the legs of a 15-mer peptide helps to identify amino acid sequences of a potentially discontinuous epitope. […] The 9- and 15-mers were synthesized as loops and screened using credit-card format mini-PEPSCAN cards (455 peptide format/card). In all looped peptides amino acids at varied positions were replaced by a cysteine (e.g., acetyl-XCXXXXXXXXCX-minicard). The peptides were synthesized using standard Fmoc-chemistry and deprotected using TFA with scavengers. Subsequently, the deprotected peptides were reacted on the microarray with an 0.5 mM solution of 1,3-bis(bromomethyl)-benzene in ammonium bicarbonate (20 mM, pH 7.9), supplemented with acetonitrile (1:1 (v/v)). The microarrays were gently shaken in the solution for 30-60 min, while completely covered in the solution. Finally, the microarrays were washed extensively with excess of Millipore H₂O and sonicated in disrupt-buffer containing 1% sodium dodecylsulfate, 0.1% β-mercaptoethanol, in PBS (pH 7.2) at 70° C. for 30 min, followed by sonication in millipore H₂O for another 45 min. Subsequently, the microwells were ready for screening in an ELISA-assay.
(§2) […] After washing, the peptides were incubated with anti-human antibody peroxidase (dilution 1:1000, 1 hour, 25° C.), and after washing the peroxidase substrate, 2,2′-azino-di-3-ethylbenzthiazolin sulfonate and 2 μl/ml 3% H₂O₂ were added. After one hour, the color development was measured. The color development of the ELISA was quantified with a CCD-camera and an image processing system.

| Binder | OD (absorbance) [OD] |
| --- | --- |
| B1 | 287 |
| B2 | 181 |
| B3 | 86 |

Biological target: T2, NCYNAEPANPSEKCS (linker 2-14 via 1,3‑bis(bromomethyl)‑benzene (inferred); reading uncertain)
T2 construct: 15-mer looped Pepscan peptide derived from human CD20, Cys put in at two positions
T2 peptide: Ac-NCYNAEPANPSEKCS-minicard
Assay: Pepscan ELISA, 10 µg/ml
Source text: as §1, §2

| Binder | OD (absorbance) [OD] |
| --- | --- |
| B1 | 93 |
| B2 | 121 |
| B3 | 49 |

Biological target: T3, ACPANPSEKNSPSCQ (linker 2-14 via 1,3‑bis(bromomethyl)‑benzene (inferred); reading uncertain)
T3 construct: 15-mer looped Pepscan peptide derived from human CD20, Cys put in at two positions
T3 peptide: Ac-ACPANPSEKNSPSCQ-minicard
Assay: Pepscan ELISA, 10 µg/ml
Source text: as §1, §2

| Binder | OD (absorbance) [OD] |
| --- | --- |
| B1 | 146 |
| B2 | 148 |
| B3 | 77 |

Biological target: T4, YCAEPANPSEKNSCS (linker 2-14 via 1,3‑bis(bromomethyl)‑benzene (inferred); reading uncertain)
T4 construct: 15-mer looped Pepscan peptide derived from human CD20, Cys put in at two positions
T4 peptide: Ac-YCAEPANPSEKNSCS-minicard
Assay: Pepscan ELISA, 10 µg/ml
Source text: as §1, §2

| Binder | OD (absorbance) [OD] |
| --- | --- |
| B1 | 106 |
| B2 | 188 |
| B3 | 65 |

Biological target: T5, GIYAPIC (also: covalently linked to polyethylene card)
T5 construct: 7-mer Pepscan peptide derived from human CD20
T5 peptide: GIYAPIC
Assay: Pepscan ELISA, 10 µg/ml
Source text: as §1, §2

| Binder | OD (absorbance) [OD] |
| --- | --- |
| B1 | 99 |
| B2 | 152 |
| B3 | 34 |

Biological target: T6, GIYAPIA (also: covalently linked to polyethylene card)
T6 construct: 7-mer Pepscan peptide derived from human CD20 (A in place of the C of GIYAPIC)
T6 peptide: GIYAPIA
Assay: Pepscan ELISA, 10 µg/ml
Source text: as §1, §2

| Binder | OD (absorbance) [OD] |
| --- | --- |
| B1 | 172 |
| B2 | 177 |
| B3 | 62 |

Biological target: T7, MESLCFIRAHCPYIN (linker 5-11 via 1,3‑bis(bromomethyl)‑benzene (inferred); reading uncertain)
T7 construct: 15-mer looped Pepscan peptide derived from human CD20, Cys put in at two positions
T7 peptide: Ac-MESLCFIRAHCPYIN-minicard
Assay: Pepscan ELISA, 10 µg/ml
Source text: as §1, §2

| Binder | OD (absorbance) [OD] |
| --- | --- |
| B1 | 179 |
| B2 | 127 |
| B3 | 41 |

Biological target: T8, IYAPIAV (also: covalently linked to polyethylene card)
T8 construct: 7-mer Pepscan peptide derived from human CD20 (A in place of the C of IYAPICV)
T8 peptide: IYAPIAV
Assay: Pepscan ELISA, 10 µg/ml
Source text: as §1, §2

| Binder | OD (absorbance) [OD] |
| --- | --- |
| B1 | 161 |
| B2 | 181 |
| B3 | 62 |

Biological target: T9, IYAPICV (also: covalently linked to polyethylene card)
T9 construct: 7-mer Pepscan peptide derived from human CD20
T9 peptide: IYAPICV
Assay: Pepscan ELISA, 10 µg/ml
Source text: as §1, §2

| Binder | OD (absorbance) [OD] |
| --- | --- |
| B1 | 137 |
| B2 | 174 |
| B3 | 58 |

Biological target: T10, CIRAHTPYC (linker 1-9 via 1,3‑bis(bromomethyl)‑benzene (inferred); not fully specified (C-terminus); also: covalently linked to minicard)
T10 construct: 9-mer looped Pepscan peptide derived from human CD20
T10 peptide: CIRAHTPYC
Assay: Pepscan ELISA, 10 µg/ml
Source text: as §1, §2

| Binder | OD (absorbance) [OD] |
| --- | --- |
| B1 | 151 |
| B2 | 186 |
| B3 | 57 |

Biological target: T11, KMESCNFIRACTPYI (linker 5-11 via 1,3‑bis(bromomethyl)‑benzene (inferred); reading uncertain)
T11 construct: 15-mer looped Pepscan peptide derived from human CD20, Cys put in at two positions
T11 peptide: Ac-KMESCNFIRACTPYI-minicard
Assay: Pepscan ELISA, 10 µg/ml
Source text: as §1, §2

| Binder | OD (absorbance) [OD] |
| --- | --- |
| B1 | 625 |
| B2 | 142 |
| B3 | 39 |

Biological target: T12, ICIYNAEPANPSECN (linker 2-14 via 1,3‑bis(bromomethyl)‑benzene (inferred); reading uncertain)
T12 construct: 15-mer looped Pepscan peptide derived from human CD20, Cys put in at two positions
T12 peptide: Ac-ICIYNAEPANPSECN-minicard
Assay: Pepscan ELISA, 10 µg/ml
Source text: as §1, §2

| Binder | OD (absorbance) [OD] |
| --- | --- |
| B1 | 138 |
| B2 | 192 |
| B3 | 78 |

Biological target: T13, CFIRAHTPC (linker 1-9 via 1,3‑bis(bromomethyl)‑benzene (inferred); not fully specified (C-terminus); also: covalently linked to minicard)
T13 construct: 9-mer looped Pepscan peptide derived from human CD20
T13 peptide: CFIRAHTPC
Assay: Pepscan ELISA, 10 µg/ml
Source text: as §1, §2

| Binder | OD (absorbance) [OD] |
| --- | --- |
| B1 | 188 |
| B2 | 181 |
| B3 | 91 |

Biological target: T14, ECANPSEKNSPSTCY (linker 2-14 via 1,3‑bis(bromomethyl)‑benzene (inferred); reading uncertain)
T14 construct: 15-mer looped Pepscan peptide derived from human CD20, Cys put in at two positions
T14 peptide: Ac-ECANPSEKNSPSTCY-minicard
Assay: Pepscan ELISA, 10 µg/ml
Source text: as §1, §2

| Binder | OD (absorbance) [OD] |
| --- | --- |
| B1 | 134 |
| B2 | 179 |
| B3 | 68 |

Biological target: T15, PCINIYNAEPANPCE (linker 2-14 via 1,3‑bis(bromomethyl)‑benzene (inferred); reading uncertain)
T15 construct: 15-mer looped Pepscan peptide derived from human CD20, Cys put in at two positions
T15 peptide: Ac-PCINIYNAEPANPCE-minicard
Assay: Pepscan ELISA, 10 µg/ml
Source text: as §1, §2

| Binder | OD (absorbance) [OD] |
| --- | --- |
| B1 | 118 |
| B2 | 163 |
| B3 | 65 |

Biological target: T16, CRAHTPYIC (linker 1-9 via 1,3‑bis(bromomethyl)‑benzene (inferred); not fully specified (C-terminus); also: covalently linked to minicard)
T16 construct: 9-mer looped Pepscan peptide derived from human CD20
T16 peptide: CRAHTPYIC
Assay: Pepscan ELISA, 10 µg/ml
Source text: as §1, §2

| Binder | OD (absorbance) [OD] |
| --- | --- |
| B1 | 427 |
| B2 | 188 |
| B3 | 48 |

Biological target: T17, AGIYAPI (also: covalently linked to polyethylene card)
T17 construct: 7-mer Pepscan peptide derived from human CD20
T17 peptide: AGIYAPI
Assay: Pepscan ELISA, 10 µg/ml
Source text: as §1, §2

| Binder | OD (absorbance) [OD] |
| --- | --- |
| B1 | 251 |
| B2 | 188 |
| B3 | 44 |

Biological target: T18, ICNAEPANPSEKNCP (linker 2-14 via 1,3‑bis(bromomethyl)‑benzene (inferred); reading uncertain)
T18 construct: 15-mer looped Pepscan peptide derived from human CD20, Cys put in at two positions
T18 peptide: Ac-ICNAEPANPSEKNCP-minicard
Assay: Pepscan ELISA, 10 µg/ml
Source text: as §1, §2

| Binder | OD (absorbance) [OD] |
| --- | --- |
| B1 | 115 |
| B2 | 165 |
| B3 | 43 |

Biological target: T19, CAHTPYINC (linker 1-9 via 1,3‑bis(bromomethyl)‑benzene (inferred); not fully specified (C-terminus); also: covalently linked to minicard)
T19 construct: 9-mer looped Pepscan peptide derived from human CD20
T19 peptide: CAHTPYINC
Assay: Pepscan ELISA, 10 µg/ml
Source text: as §1, §2

| Binder | OD (absorbance) [OD] |
| --- | --- |
| B1 | 179 |
| B2 | 174 |
| B3 | 42 |

Biological target: T20, KMECLNFIRAHCPYI (linker 4-12 via 1,3‑bis(bromomethyl)‑benzene (inferred); reading uncertain)
T20 construct: 15-mer looped Pepscan peptide derived from human CD20, Cys put in at two positions
T20 peptide: Ac-KMECLNFIRAHCPYI-minicard
Assay: Pepscan ELISA, 10 µg/ml
Source text: as §1, §2

| Binder | OD (absorbance) [OD] |
| --- | --- |
| B1 | 763 |
| B2 | 134 |
| B3 | 48 |

Biological target: T21, IPAGIYA (also: covalently linked to polyethylene card)
T21 construct: 7-mer Pepscan peptide derived from human CD20
T21 peptide: IPAGIYA
Assay: Pepscan ELISA, 10 µg/ml
Source text: as §1, §2

| Binder | OD (absorbance) [OD] |
| --- | --- |
| B1 | 217 |
| B2 | 164 |
| B3 | 48 |

Biological target: T22, PAGIYAP (also: covalently linked to polyethylene card)
T22 construct: 7-mer Pepscan peptide derived from human CD20
T22 peptide: PAGIYAP
Assay: Pepscan ELISA, 10 µg/ml
Source text: as §1, §2

| Binder | OD (absorbance) [OD] |
| --- | --- |
| B1 | 449 |
| B2 | 170 |
| B3 | 43 |

Biological target: T23, LKMECLNFIRCHTPY (linker 5-11 via 1,3‑bis(bromomethyl)‑benzene (inferred); reading uncertain)
T23 construct: 15-mer looped Pepscan peptide derived from human CD20, Cys put in at two positions
T23 peptide: Ac-LKMECLNFIRCHTPY-minicard
Assay: Pepscan ELISA, 10 µg/ml
Source text: as §1, §2

| Binder | OD (absorbance) [OD] |
| --- | --- |
| B1 | 165 |
| B2 | 160 |
| B3 | 49 |
